Biological target: membrane IgG (mIgG) on IgG-expressing B-cell lines (human (endogenous in CRL 2632 and CRL 2289)) [IgG part: P01857]
Experiment: hemadsorption/hemagglutination (protein G-RBC rosetting); mIgG-expressing B-cells exposed to protein G-RBCs at 4°C without added mAb, rosettes scored by phase contrast microscopy

HA background (percent rosetted cells): < 30%
Substance: protein G on red blood cells (protein G-RBC) (from UniProt P19909 34-562) (natural protein)
